Like-named read-outs stand apart in the source and are kept apart here.
How the values were obtained:
Test in all cases: cell-based or functional assay
[1] = target: human TSHR (thyroid stimulating hormone receptor) expressed in transfected CHO cells (human) (UniProt P16473)
[2] = target: human TSH receptor (full length, wild type) expressed in CHO cells (human) (UniProt P16473)
[3] = target: human TSHR (wild type, full length) expressed in CHO cells (human) (UniProt P16473)
[4] = target: human TSH receptor (full length, wild type) expressed in CHO cells (human) (UniProt P16473); remark: listed apart in the source
[5] = target: human TSH receptor (wild type), expressed on transfected CHO cells (human) (UniProt P16473)
[6] = target: human TSHR (wild type, full length) expressed in CHO cells (human) (UniProt P16473); remark: listed apart in the source
[7] = target: human TSHR expressed in CHO cells (human) (UniProt P16473)

## 9D33 IgG (antibody)
[1]
  % Inhibition; 3 ng/mL M22 IgG + 0.001 µg/mL 9D33 IgG: 9%
  % Inhibition; 3 ng/mL M22 IgG + 0.01 µg/mL 9D33 IgG: 2%
  % Inhibition; 3 ng/mL M22 IgG + 0.1 µg/mL 9D33 IgG: 66%
  % Inhibition; 3 ng/mL M22 IgG + 1 µg/mL 9D33 IgG: 93%
  % Inhibition; 3 ng/mL M22 IgG + 10 µg/mL 9D33 IgG: 94%
  % Inhibition; 3 ng/mL M22 IgG + 100 µg/mL 9D33 IgG: 95%
  Cyclic AMP concentration; 3 ng/mL M22 IgG + 0.001 µg/mL 9D33 IgG: 19.4 pmol/mL
  Cyclic AMP concentration; 3 ng/mL M22 IgG + 0.01 µg/mL 9D33 IgG: 21 pmol/mL
  Cyclic AMP concentration; 3 ng/mL M22 IgG + 0.1 µg/mL 9D33 IgG: 7.19 pmol/mL
  Cyclic AMP concentration; 3 ng/mL M22 IgG + 1 µg/mL 9D33 IgG: 1.48 pmol/mL
  Cyclic AMP concentration; 3 ng/mL M22 IgG + 10 µg/mL 9D33 IgG: 1.2 pmol/mL
  Cyclic AMP concentration; 3 ng/mL M22 IgG + 100 µg/mL 9D33 IgG: 1.01 pmol/mL
  Cyclic AMP concentration; 100 µg/mL 9D33 IgG: 1.31 pmol/mL
[2]
  % Inhibition; T7 serum + 100 µg/mL 9D33 IgG: 93%
  % Inhibition; T8 serum + 100 µg/mL 9D33 IgG: 95%
  % Inhibition; T9 serum + 100 µg/mL 9D33 IgG: 87.2%
  Cyclic AMP concentration; 100 µg/mL 9D33 IgG alone: 2.4 pmol/mL
  Cyclic AMP concentration; HBD + 100 µg/mL 9D33 IgG: 5.4 pmol/mL
  Cyclic AMP concentration; T7 serum + 100 µg/mL 9D33 IgG: 6.3 pmol/mL
  Cyclic AMP concentration; T8 serum + 100 µg/mL 9D33 IgG: 4.3 pmol/mL
  Cyclic AMP concentration; T9 serum + 100 µg/mL 9D33 IgG: 7.2 pmol/mL
[3]
  % Inhibition of T13 serum stimulation; 100 µg/mL 9D33 IgG: 92.2%
  % Inhibition of T14 serum stimulation; 100 µg/mL 9D33 IgG: 89.7%
  % Inhibition of T15 serum stimulation; 100 µg/mL 9D33 IgG: 92.4%
  Cyclic AMP concentration; 100 µg/mL 9D33 IgG alone: 2.3 pmol/mL
  Cyclic AMP concentration; HBD + 100 µg/mL 9D33 IgG: 3.3 pmol/mL
  Cyclic AMP concentration; T13 serum + 100 µg/mL 9D33 IgG: 3.8 pmol/mL
  Cyclic AMP concentration; T14 serum + 100 µg/mL 9D33 IgG: 2.8 pmol/mL
  Cyclic AMP concentration; T15 serum + 100 µg/mL 9D33 IgG: 3.9 pmol/mL
[4]
  % Inhibition; T1 serum + 100 µg/mL 9D33 IgG: 95.4%
  % Inhibition; T2 serum + 100 µg/mL 9D33 IgG: 96.8%
  % Inhibition; T3 serum + 100 µg/mL 9D33 IgG: 94.2%
  Cyclic AMP concentration; 100 µg/mL 9D33 IgG alone: 2.1 pmol/mL
  Cyclic AMP concentration; HBD + 100 µg/mL 9D33 IgG: 1.9 pmol/mL
  Cyclic AMP concentration; T1 serum + 100 µg/mL 9D33 IgG: 4.6 pmol/mL
  Cyclic AMP concentration; T2 serum + 100 µg/mL 9D33 IgG: 2 pmol/mL
  Cyclic AMP concentration; T3 serum + 100 µg/mL 9D33 IgG: 3.7 pmol/mL
[5]
  % Inhibition; 9D33 IgG 0.01 µg/mL + T11: 17.1%
  % Inhibition; 9D33 IgG 0.1 µg/mL + T11: 50.4%
  % Inhibition; 9D33 IgG 1 µg/mL + T11: 87.7%
  % Inhibition; 9D33 IgG 10 µg/mL + T11: 90.1%
  % Inhibition; 9D33 IgG 100 µg/mL + T11: 94.8%
  Cyclic AMP concentration; 9D33 IgG 0.01 µg/mL + T11: 20.9 pmol/mL
  Cyclic AMP concentration; 9D33 IgG 0.1 µg/mL + T11: 12.5 pmol/mL
  Cyclic AMP concentration; 9D33 IgG 1 µg/mL + T11: 3.1 pmol/mL
  Cyclic AMP concentration; 9D33 IgG 10 µg/mL + T11: 2.5 pmol/mL
  Cyclic AMP concentration; 9D33 IgG 100 µg/mL + T11: 2.1 pmol/mL
  Cyclic AMP concentration; 9D33 IgG 100 µg/mL alone: 1.3 pmol/mL
[6]
  % Inhibition of T5 serum stimulation; 0.01 µg/mL 9D33 IgG: 23%
  % Inhibition of T5 serum stimulation; 0.1 µg/mL 9D33 IgG: 55.7%
  % Inhibition of T5 serum stimulation; 1 µg/mL 9D33 IgG: 93.6%
  % Inhibition of T5 serum stimulation; 10 µg/mL 9D33 IgG: 96.4%
  % Inhibition of T5 serum stimulation; 100 µg/mL 9D33 IgG: 95.3%
  Cyclic AMP concentration; 0.01 µg/mL 9D33 IgG + T5: 49.2 pmol/mL
  Cyclic AMP concentration; 0.1 µg/mL 9D33 IgG + T5: 28.3 pmol/mL
  Cyclic AMP concentration; 1 µg/mL 9D33 IgG + T5: 4.1 pmol/mL
  Cyclic AMP concentration; 10 µg/mL 9D33 IgG + T5: 2.3 pmol/mL
  Cyclic AMP concentration; 100 µg/mL 9D33 IgG + T5: 3 pmol/mL
  Cyclic AMP concentration; 100 µg/mL 9D33 IgG alone: 2.4 pmol/mL
[7]
  % Inhibition; 3 ng/mL pTSH + 0.001 µg/mL 9D33 IgG: 13%
  % Inhibition; 3 ng/mL pTSH + 0.01 µg/mL 9D33 IgG: 5%
  % Inhibition; 3 ng/mL pTSH + 0.1 µg/mL 9D33 IgG: 28%
  % Inhibition; 3 ng/mL pTSH + 1 µg/mL 9D33 IgG: 67%
  % Inhibition; 3 ng/mL pTSH + 10 µg/mL 9D33 IgG: 87%
  % Inhibition; 3 ng/mL pTSH + 100 µg/mL 9D33 IgG: 95%
